Source: patent US9605038B2, “Fusion peptide comprising dhFas-1 domain and MMP substrate and use thereof for preventing and treating rheumatoid arthritis” (Kyungpook National University Industry-Academic Cooperation …, priority 2010, dated 2017)
Where a chain is given by its changes, count along the chain named. “Also recorded” adds a separate entry of the source.

Columns and labels:
[1] = system: foot tissue of CIA mouse (Synovial membrane, cartilage, bones; CD31, ICAM-1); experiment: Histologic and immunohistochemistry test on foot tissue of CIA mouse; format: in vivo; conditions: CIA mouse, 50th day
Method: In order to determine the action mechanism of an arthritis therapeutic effect in a CIA model, on the 50th day following the second injection of the bovine type 2 collagen (after 4 weeks from the onset (the 23rd day) of arthritis following the second injection of the bovine type 2 collagen), foot tissues of treatment groups were separated and subjected to histologic analysis. Then, in the tissues, a change in the expression of inflammatory mediators was examined.
A tissue sample was prepared by the following process. Skin on the foot tissue was removed. Then, the tissue was fixed in 10% formalin solution for 2 days, and demineralized in 10% EDTA solution. The demineralized tissue was subjected to a dehydrating process and a clearing process, paraffin-embedded, and was made into a fragment with a thickness of 3 um by a microtome. The tissue fragment was deparaffinized and re-dehydrated by 100% xylene and ethanol, and then non-specific peroxidase within the tissue was blocked by a solution of 0.3% hydrogen peroxide dissolved in 100% methanol.
In order to carry out an immunohistochemistry test, binding of non-specific protein was blocked by 5% BSA. Then, the tissue was cultured, together with each primary antibody (as endothelial cell markers, an antibody to CD31, and an antibody to ICAM-1 (intercellular adhesion molecule-1)), at 4° C. for 12 to 14 hours, and washed with washing buffer (0.1% BSA, 0.2% gelatin, 0.05% saponin). It was cultured together with a secondary antibody labeled with biotin at room temperature for 30 minutes, was washed, reacted with Vectastatin ABC kit (Vector Laboratories, U.S.), and was mounted with Eukitt mounting media (Fluka, Germany) for observation.

ICAM-1 and RANKL = experiment: Immunoblot of ICAM-1 and RANKL in CIA mouse model; format: in vivo; conditions: 30 mg/kg, FIG. 27
NIH3T3 = experiment: βig-h3-mediated cell migration test (transwell), NIH3T3; format: cell-based, mouse; conditions: 7 hours
Method: In the lower compartment of a transwell filter having an 8 um hole size allowing cells to be migrated, βig-h3 was cultured at 4° C. for 12 to 14 hours and coated. In DMEM+0.5% BSA culture medium, NIH3T3 was introduced, and administered with MFK23, MFK24 or MFK25 at concentrations, followed by mixing. The resultant mixture was cultured at 37° C. for 30 minutes, inoculated into the upper chamber of the coated well, and cultured for 7 hours at 37° C. Then, the cells migrated to the lower compartment of the filter were fixed by paraformaldehyde, and strained by a crystal violet. The cells […] remaining in the upper chamber were wiped out and the number of cells migrated to the lower compartment was microscopically counted.

[2] = system: mouse fibroblast (NIH3T3); experiment: βig-h3-mediated cell adhesion test, NIH3T3; format: cell-based; conditions: NIH3T3, βig-h3 5 ug/ml coat
Method: (§1) Human βig-h3 was introduced into a 96-well plate at a concentration of 5 ug/ml, and coated for 14 hours at 4° C. In DMEM+0.5% BSA (Bovine Serum Albumin) culture medium, human fibroblast (NIH3T3) was introduced, and hsdhFas-1 peptide at concentrations was injected thereto, followed by mixing. The resultant mixture was cultured at 37° C. for 30 minutes, and plated on a coated well. It was cultured for 2 hours, and washed with PBS (phosphate buffered saline) so as to remove unattached cells, and then added with a substrate (4-Nitrophenyl N-acetyl-β-D-glucosaminide, Sigma, U.S.) to be activated by β-N-acetylglucosaminidase within the cell, followed by culturing at 37° C. for 1 hour. Then, a glycine EDTA solution (0.5M EDTA, 50 mM glycine, pH 10.4) was added thereto, and the coloring extent according to the number of attached cells was measured by absorbance.
Also, a structurally modified peptide of a fas-1 domain of mouse βig-h3 was synthesized as a recombinant peptide (hereinafter, referred to as ‘mdhFas-1peptide’, see FIG. 2), and a mouse cell line, that is, NIH3T3 cell line, was used to test the inhibiting effect by mdhFas-1 peptide on adhesion and migration of a Synovial membrane cell in the same manner as that in the test using human βig-h3.
as §1, with “βig-h3” for “Human βig-h3”, “mouse” for “human”, “MFK23, MFK24, MFK25 or MFK27” for “hsdhFas-1 peptide”

[3] = system: collagen-induced arthritis (CIA) mouse model; experiment: Arthritis therapeutic effect in CIA mouse (clinical arthritis index); format: in vivo
Method: A CIA mouse model having the similar characteristic to that of human rheumatoid arthritis was prepared according to the description in a known literature (Protocol for the successful induction of collagen-induced arthritis (CIA) and collagen antibody-induced arthritis (CAIA) in mice. Chondrex, Redmond, Wash.): Bovine type 2 collagen 100 ug was mixed with Freund's complete adjuvant, and hypodermically inoculated into the tail of the mouse. After 3 weeks, bovine type 2 collagen 100 ug was mixed with Freund's incomplete adjuvant, and inoculated again into the tail of the mouse. Then, the mouse was used in the experiment.
In order to find out the therapeutic effect of arthritis in a CIA model, for four weeks from the onset (the 23rd day) of arthritis following the second injection of the bovine type 2 collagen, MFK23 or MFK24 was daily injected into the abdominal cavity in doses of 0.1 mg/kg, 1 mg/kg, 10 mg/kg and 30 mg/kg. As a control group, the same amount of PBS was injected into the abdominal cavity. From the 23rd day to the 50th day, by using a Clinical arthritis index, the severity of arthritis was daily determined. The determination was based on the following data.
0; no symptom, 1; edema in one articulation or light edema, 2; severe edema in 2 or more articulations, 3; severe edema in most articulations, 4; severe edema in the whole of legs.

[4] = Toxicity test in CIA mouse (weight, serologic test, blood test); conditions: CIA mouse, 22nd day vs 48th day
Method: On the 48th day, a serologic test and a blood test were carried out.

[5] = system: TNF-a, RANKL, IL-1β, CCL-2, MMP-1, MMP-3, IL-6, VCAM-1; experiment: Semiquantitative reverse transcription PCR of inflammatory mediators in CIA mouse foot tissue; format: in vivo; conditions: CIA mouse, 30 mg/kg, FIG. 26
Method: The distribution of inflammation in the foot tissue may be somewhat differently observed according to the regions, and its quantitative research is difficult. Thus, in the hind leg of a mouse CIA model treated with MFK24, the change in inflammatory mediators according to the onset of arthritis was measured by a semiquantitative reverse transcription PCR method using a Taqman probe, as described below.
From a mouse CIA model, a foot tissue was separated, and its skin was removed. The remaining tissue was grinded by a tissue homogenizer, and an extraction reagent (Easy-spim™, Intron) was used to extract all RNAs. They were quantified, and for 7 μg of RNA, a reverse transcriptase reaction was carried out by using AMV reverse transcriptase (Roche, 0.5 ul), oligo dT (Roche, 1 ul), and 10 mM dNTP (Takara, 2 ul) RNase inhibitor (Roche, 0.1 ul). For TNF-a, RANKL, IL-1β, CCL-2, MMP-1, MMP-3, IL-6, VCAM-1 and 18S RNA of a mouse, semiquantitative PCR was performed by using primers (Bioneer, Daejeon) and a Taqman probe (Roche, Germany) in LC480 (Roche, Germany), so as to determine the number of transcripts. Quantitative analysis of the transcripts was performed through comparison with 18S RNA transcripts. The primer pairs for the semiquantitative PCR are noted in [table8].

[6] = system: human fibroblast (NIH3T3); experiment: Cell adhesion test on human βig-h3 coated plate (hsdhFas-1); format: cell-based; conditions: human βig-h3 5 ug/ml coat, FIG. 3
Method: as §1

[7] = system: human fibroblast-like synovicyte (FLS); experiment: βig-h3-mediated cell adhesion test, FLS; format: cell-based
Method: as §1, with “βig-h3” for “Human βig-h3”, “fibroblast-like synovicyte (FLS)” for “fibroblast (NIH3T3)”, “HsFJ24, HsFJ25 or HsFJ27” for “hsdhFas-1 peptide”

B1: MFK12: a peptide having mdhFas-1 (as a basic structure) linked to an RGDSP (SEQ ID NO: 9) peptide (protein)
chain: QAMPPEELNKLLANAKELTNILKYHIGDEILVSGGIGALVRLKSLQGDKLEVSSKNNVVSVNKEPVAETDIMEFGGRGDSPDDDDDLE
modifications: MFK12
proliferation of Synovial membrane tissue cells ([1]; 10 mg/kg): hyper-proliferated | state of the articulation region ([1]; 10 mg/kg): the articulation region was destroyed | vascularization induction and cell adhesion protein expression (CD31, ICAM-1) ([1]; 10 mg/kg): increased as much as that in the control group | proliferation of Synovial membrane tissue cells ([1]; 30 mg/kg): inhibited compared to that in the control group | shape of the foot tissue ([1]; 30 mg/kg): nearly normal | vascularization induction and adhesion protein expression (CD31, ICAM-1) ([1]; 30 mg/kg): reduced | expression levels of ICAM-1 and RANKL vs arthritis control group (ICAM-1 and RANKL): reduced levels | βig-h3-mediated cell migration (NIH3T3): inhibited the adhesion and migration of a cell even at a lower concentration than that in Comparative Example 1; also recorded: concentration-dependently inhibited | βig-h3-mediated cell adhesion [2]: inhibited the adhesion and migration of a cell even at a lower concentration than that in Comparative Example 1; also recorded: concentration-dependently inhibited | arthritis inhibition (clinical arthritis index) ([3]; 10 mg/kg daily): about 27% | arthritis inhibition (clinical arthritis index) ([3]; 30 mg/kg daily): about 60% | arthritis inhibiting effect (clinical arthritis index), in words ([3]; daily into the abdominal cavity): concentration-dependently inhibited | body weight change compared to control group [4]: abnormal findings in the weight change were not observed | expression levels of TNF-a, IL-6, IL-1β, ICAM-1, and RANKL vs arthritis control group [5]: reduced levels

B2: hsdhFas-1: peptide prepared by removing H1 and H2 regions from the fourth fas-1 domain of human βig-h3 (protein)
chain: RALPPRERSRLLGDAKELANILKYHIGDEILVSGGIGALVRLKSLQGDKLEVSLKNNVVSVNKEPVAEPDIM
modifications: hsdhFas-1
notes: peptide prepared by removing H1 and H2 regions from the fourth fas-1 domain of human βig-h3
βig-h3-mediated cell migration (NIH3T3): concentration-dependently inhibited | βig-h3-mediated adhesion [6]: concentration-dependently inhibited

B3: HsFJ24: fusion peptide having sequential links of hsdhFas-1, MMP1 substrate GPQGIAG (SEQ ID NO: 6), and QERGDSLA (SEQ ID NO: 10) (protein)
chain: RALPPRERSRLLGDAKELANILKYHIGDEILVSGGIGALVRLKSLQGDKLEVSLKNNVVSVNKEPVAEPDIMEFGPQGIAGVDGQERGDSLAGLE
modifications: hsFJ24
βig-h3-mediated adhesion of FLS [7]: concentration-dependently inhibited

B4: HsFJ25: fusion peptide having sequential links of hsdhFas-1, MMP consensus substrate GPLGIAG (SEQ ID NO: 7), and QERGDSLA (SEQ ID NO: 10) (protein)
chain: B3 chain with Q77L
modifications: hsFj25
βig-h3-mediated adhesion of FLS [7]: concentration-dependently inhibited

B5: HsFJ27: fusion peptide having sequential links of hsdhFas-1, MMP3 substrate GPLGLWARG (SEQ ID NO: 8), and QERGDSLA (SEQ ID NO: 10) (protein)
chain: MALFVRLLALALALALGPAATLARSFRALPPRERSRLLGDAKELANILKYHIGDEILVSGGIGALVRLKSLQGDKLEVSLKNNVVSVNKEPVAEPDIMEFGPLGLWARGVDQERGDSLAGLE
modifications: hsFJ27
βig-h3-mediated adhesion of FLS [7]: concentration-dependently inhibited
